Target: human PCNA, purified (human), P12004
Assay: SPR; Bio-Rad XPR 36; human PCNA (~350 RU) immobilised on GLC chip by amine coupling; subunits injected at 125 to 2000 nM; 25 mM HEPES pH 7.5, 10% glycerol, 200 mM sodium acetate pH 7.8, 8 mM magnesium acetate, 1 mM DTT, 0.005% Tween-20, 0.2 mg/ml BSA; 20°C; 1:1 (Langmuir) model
Settings: remark: other sources report otherwise

Chain of human PCNA, purified (human), P12004 (P12004 whole entry): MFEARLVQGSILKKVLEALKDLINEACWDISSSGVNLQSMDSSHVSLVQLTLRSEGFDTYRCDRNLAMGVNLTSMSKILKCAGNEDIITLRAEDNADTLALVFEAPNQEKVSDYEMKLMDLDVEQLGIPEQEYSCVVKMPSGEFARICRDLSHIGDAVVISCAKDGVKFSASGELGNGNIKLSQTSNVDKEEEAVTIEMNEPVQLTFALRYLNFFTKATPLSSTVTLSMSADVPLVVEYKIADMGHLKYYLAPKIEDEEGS

- Kd: 114 nM
- koff: 0.0002 s⁻¹
- kon: 1750 M⁻¹ s⁻¹
- response units: 90 RU
B1: p125, purified, P28340 1-1107 (natural protein)
chain: MDGKRRPGPGPGVPPKRARGGLWDDDDAPRPSQFEEDLALMEEMEAEHRLQEQEEEELQSVLEGVADGQVPPSAIDPRWLRPTPPALDPQTEPLIFQQLEIDHYVGPAQPVPGGPPPSRGSVPVLRAFGVTDEGFSVCCHIHGFAPYFYTPAPPGFGPEHMGDLQRELNLAISRDSRGGRELTGPAVLAVELCSRESMFGYHGHGPSPFLRITVALPRLVAPARRLLEQGIRVAGLGTPSFAPYEANVDFEIRFMVDTDIVGCNWLELPAGKYALRLKEKATQCQLEADVLWSDVVSHPPEGPWQRIAPLRVLSFDIECAGRKGIFPEPERDPVIQICSLGLRWGEPEPFLRLALTLRPCAPILGAKVQSYEKEEDLLQAWSTFIRIMDPDVITGYNIQNFDLPYLISRAQTLKVQTFPFLGRVAGLCSNIRDSSFQSKQTGRRDTKVVSMVGRVQMDMLQVLLREYKLRSYTLNAVSFHFLGEQKEDVQHSIITDLQNGNDQTRRRLAVYCLKDAYLPLRLLERLMVLVNAVEMARVTGVPLSYLLSRGQQVKVVSQLLRQAMHEGLLMPVVKSEGGEDYTGATVIEPLKGYYDVPIATLDFSSLYPSIMMAHNLCYTTLLRPGTAQKLGLTEDQFIRTPTGDEFVKTSVRKGLLPQILENLLSARKRAKAELAKETDPLRRQVLDGRQLALKVSANSVYGFTGAQVGKLPCLEISQSVTGFGRQMIEKTKQLVESKYTVENGYSTSAKVVYGDTDSVMCRFGVSSVAEAMALGREAADWVSGHFPSPIRLEFEKVYFPYLLISKKRYAGLLFSSRPDAHDRMDCKGLEAVRRDNCPLVANLVTASLRRLLIDRDPEGAVAHAQDVISDLLCNRIDISQLVITKELTRAASDYAGKQAHVELAERMRKRDPGSAPSLGDRVPYVIISAAKGVAAYMKSEDPLFVLEHSLPIDTQYYLEQQLAKPLLRIFEPILGEGRAEAVLLRGDHTRCKTVLTGKVGGLLAFAKRRNCCIGCRTVLSHQGAVCEFCQPRESELYQKEVSHLNALEERFSRLWTQCQRCQGSLHEDVICTSRDCPIFYMRKKVRKDLEDQEQLLRRFGPPGPEAW

— PMC7189476
